Experimental findings from article PMC9036120 are described below.

Like-named read-outs stand apart in the source and are kept apart here.

In data set [1] the target is T1, PPARA;RXRA (mouse;mouse, UniProt P23204;P28700 1-468;1-467, |).
T1 sequence 1: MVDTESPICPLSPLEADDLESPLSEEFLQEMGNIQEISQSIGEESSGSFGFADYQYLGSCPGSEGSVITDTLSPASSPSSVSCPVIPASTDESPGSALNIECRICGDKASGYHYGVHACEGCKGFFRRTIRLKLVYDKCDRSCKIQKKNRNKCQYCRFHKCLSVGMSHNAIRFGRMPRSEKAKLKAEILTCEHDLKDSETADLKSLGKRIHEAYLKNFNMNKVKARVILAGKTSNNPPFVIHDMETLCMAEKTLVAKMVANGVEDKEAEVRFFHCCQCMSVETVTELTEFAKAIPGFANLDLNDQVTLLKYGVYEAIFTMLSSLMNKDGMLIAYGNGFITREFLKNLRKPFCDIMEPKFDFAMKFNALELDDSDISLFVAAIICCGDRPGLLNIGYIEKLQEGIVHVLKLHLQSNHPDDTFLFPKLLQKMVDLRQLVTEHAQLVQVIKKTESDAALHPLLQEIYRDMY
T1 sequence 2: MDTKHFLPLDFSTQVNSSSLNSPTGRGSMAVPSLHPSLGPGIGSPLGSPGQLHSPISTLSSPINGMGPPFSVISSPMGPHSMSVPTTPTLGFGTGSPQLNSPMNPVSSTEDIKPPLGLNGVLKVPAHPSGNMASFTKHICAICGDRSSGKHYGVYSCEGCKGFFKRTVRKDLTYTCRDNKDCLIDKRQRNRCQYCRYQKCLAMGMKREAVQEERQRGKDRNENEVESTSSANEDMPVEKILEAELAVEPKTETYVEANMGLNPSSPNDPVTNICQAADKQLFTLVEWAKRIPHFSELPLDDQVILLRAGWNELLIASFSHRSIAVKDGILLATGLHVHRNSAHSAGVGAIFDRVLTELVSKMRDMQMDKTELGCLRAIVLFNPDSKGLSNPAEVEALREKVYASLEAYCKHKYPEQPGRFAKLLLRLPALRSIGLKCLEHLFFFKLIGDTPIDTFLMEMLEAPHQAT
Nature of the data set: EMSA.

In data set [2] the target is T1, PPARA;RXRA. Put plainly: EMSA. The source holds these as a separate data set. Background: A gel shift assay detects complexes by their altered migration in electrophoresis.

B1: E2f8-PPRE4 (dsDNA)
DNA 1: AGGCCCAGTAGGTTAAAGGGCTGACATTTTA
DNA 2: TAAAATGTCAGCCCTTTAACCTACTGGGCCT
With B1, the binding result in data set [1] was “binds”.

B2: Control (Acox1)-PPRE (dsDNA)
DNA 1: TCCCGAACGTGACCTTTGTCCTGGTCCCCTG
DNA 2: CAGGGGACCAGGACAAAGGTCACGTTCGGGA
For the molecule B2, the binding result in data set [2] is reported as “binds”.

B3: Ppara-PPRE6 (dsDNA)
DNA 1: AAGTTTCAATGACCTTTGGGACAGTTAACTA
DNA 2: TAGTTAACTGTCCCAAAGGTCATTGAAACTT
B3: in data set [1], the binding result is “binds”.
